This note sets out measurements from PMC5821440.

Assay [1] addresses Pro21717-CD, catalytic domain of the cold-active subtilisin-like serine protease Pro21717 from Pseudoalteromonas arctica PAMC 21717 (Pseudoalteromonas arctica PAMC 21717). As to the kind of experiment: not stated; purified Pro21717-CD in solution, three days after refolding; method in S2 Fig, not shown.
The target is the same in assay [2].

Numbered stars: 1 amine (or outer) side, 2 acyl side, 3 side chain; on linkers, the order of the positions; unused ones are H or OH. * marks the point of attachment. pNA = O=[N+]([O-])c1ccc(N*)cc1; Suc = O=C(CCC(=O)[*:2])[*:1]

“Pro21717-CD, catalytic domain of the cold-active subtilisin-like serine protease Pro21717 from Pseudoalteromonas arctica PAMC 21717 (domain or fragment)”: in assay [1], the stoichiometry N turned out to be 2.
Consider Suc-AAPF-pNA [N-succinyl-Ala-Ala-Pro-Phe-p-nitroanilide], for which the relative proteolytic activity (%) on N-succinyl-AAPF-p-nitroanilide, 0.83 mM, 30°C, 5 min (the best peptide substrate, set to 100) in assay [2] was determined as 100%.
